Test results taken from the supplement of paper PMC7125110.
± gives the standard error. Fewer inactive variants are shown than the library holds.

B1: glmS ribozyme (parent)
chain: AUAAAAGCGCCAGAACUACAGAAAUGUAGUUGACGAGGAGGAGGUUUAUCGAAUUUUCGGCGGAUGCCUCCAAA

Tests used:
Conditions in all cases: with glucosamine-6-phosphate
[1] = variants of: B1; assay: self-cleavage kobs at 640 uM GlcN6P; higher = faster cleavage; RNA array
In short: (§1)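 On sequenced MiSeq chips, barcoded ribozyme variants were made in situ by E. coli RNA polymerase and followed at 37 °C through a hybridised Cy3 probe. Glucosamine-6-phosphate was flowed in at 40 μM to 10 mM in HEPES/KCl/Mg(OAc)2 buffer. Exponential fits to normalised per-tile medians gave kobs, and weighted Michaelis–Menten fits gave kcat and KM.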

[2] = variants of: B1; assay: self-cleavage kobs at 2500 uM GlcN6P; higher = faster cleavage; RNA array
In short: as §1

[3] = variants of: B1; assay: self-cleavage kobs at 10000 uM GlcN6P; higher = faster cleavage; RNA array
In short: as §1

Row | Variant | self-cleavage kobs at 640 uM GlcN6P [1] [s⁻¹] | self-cleavage kobs at 2500 uM GlcN6P [2] [s⁻¹] | self-cleavage kobs at 10000 uM GlcN6P [3] [s⁻¹]
1 | A36G A39U G43A U45G G59A | < 1e-05 | – | –
2 | G29U A42G G62C | < 1e-05 | – | –
3 | G44U A48U A64G C67G | 0.000188 ± 7.9e-05 | 0.000485 ± 0.00017 | –
4 | A12G U31G U55A C67U | 5.14e-05 ± 1.3e-05 | 0.00011 ± 1.9e-05 | 0.000176 ± 3.2e-05
5 | A12C A14C U31G | 0.00206 ± 0.00061 | 0.00423 ± 0.0015 | –
6 | C11A C50G U57G | 8.51e-05 ± 3e-05 | 7.4e-05 ± 2.5e-05 | –
7 | A33G C50G C68G | 0.00023 ± 6.4e-05 | 0.000213 ± 4e-05 | –
8 | U2C G32C G60U G63C | < 1e-05 | – | –
9 | A12G U30A A52C U54C | < 1e-05 | < 1e-05 | –
10 | A14G C16A G62C | < 1e-05 | – | –
11 | U45C A48C G63U | < 1e-05 | < 1e-05 | –
12 | C10U A14U C16U C68G | 0.00169 ± 0.00051 | 0.000319 ± 0.00011 | –
13 | G37U A42C C50A A64U | < 1e-05 | – | –
14 | G9U G29C U54G U69A | < 1e-05 | < 1e-05 | –
15 | G41A C58A U69A | < 1e-05 | < 1e-05 | –
16 | G35C A36U A39G | < 1e-05 | – | –
17 | C11A U30G U54G | 4.96e-05 ± 1.4e-05 | 0.000114 ± 2.1e-05 | –
18 | C8G A12U A36C | < 1e-05 | – | –
19 | G37U C61G | < 1e-05 | – | < 1e-05
20 | C10G C11U G41A C70U | < 1e-05 | – | –
21 | A36G U47A | < 1e-05 | – | –
22 | C10U C16U A39U G60U C67G U69G | < 1e-05 | < 1e-05 | –

Row | Variant | self-cleavage kobs at 640 uM GlcN6P [1] [s⁻¹] | self-cleavage kobs at 2500 uM GlcN6P [2] [s⁻¹] | self-cleavage kobs at 10000 uM GlcN6P [3] [s⁻¹]
23 | U31A A52G U69G | 7.54e-05 ± 3.6e-05 | 7.91e-05 ± 2.3e-05 | –
24 | G38U C61A | < 1e-05 | – | –
25 | G62U G63U G66C | < 1e-05 | < 1e-05 | –
26 | A14U A33G G38A | < 1e-05 | < 1e-05 | –
27 | C11G G41U C50U | < 1e-05 | < 1e-05 | –
28 | C8U C19A G35A A36U G51U | < 1e-05 | – | –
29 | G35U A39G G43A | < 1e-05 | < 1e-05 | –
30 | C16G G37A U45A | 8.21e-05 ± 2.1e-05 | – | –
31 | U54A C67U C68A | 6.98e-05 ± 2.2e-05 | – | –
32 | A6G A39C G63U A64U C67G | < 1e-05 | – | < 1e-05
33 | C34A C67A C71U | < 1e-05 | – | –
34 | A14U A64U U65A C67G C71G | 7.6e-05 ± 2.4e-05 | 4.74e-05 ± 2.1e-05 | –
35 | G13A C16G G29U G37A G40U | < 1e-05 | – | –
36 | G38U G41A U46G U49G | < 1e-05 | – | < 1e-05
37 | A12G A36G G40A U54G | < 1e-05 | – | –
38 | G13C U46G A53U U54A | < 1e-05 | – | –
39 | G7U G43U C67G | < 1e-05 | – | –
40 | C16U A36G A39C | < 1e-05 | – | –
41 | G32A U54C C67U | 0.000136 ± 3.3e-05 | 0.000349 ± 9.2e-05 | –
42 | G7A G9U C68U | < 1e-05 | – | –
43 | C10A G13C C61G G66A C70A | 0.000102 ± 4.5e-05 | – | –
44 | A15G G40A G59U C67G | < 1e-05 | < 1e-05 | –

Row | Variant | self-cleavage kobs at 640 uM GlcN6P [1] [s⁻¹] | self-cleavage kobs at 2500 uM GlcN6P [2] [s⁻¹] | self-cleavage kobs at 10000 uM GlcN6P [3] [s⁻¹]
45 | A6U U49C U54A A64U C68U | < 1e-05 | – | –
46 | U46G C50U C67U C68A U69G | 0.00024 ± 9.9e-05 | – | 4.36e-05 ± 1.5e-05
47 | C8G U54C G60A | < 1e-05 | < 1e-05 | –
48 | C11U U31A C50G | 8.34e-05 ± 2.1e-05 | 9.55e-05 ± 3.2e-05 | –
49 | G32U G35A U55G C68A | < 1e-05 | < 1e-05 | –
50 | A12U U31C C67U | 0.000286 ± 9.1e-05 | – | –
51 | U30C G44U | < 1e-05 | < 1e-05 | < 1e-05
52 | U31A G60U C71A | < 1e-05 | < 1e-05 | –
53 | G13A C16G G59C C68A | 0.000133 ± 3.8e-05 | – | –
54 | G29A C50U C68A | 4.21e-05 ± 1.6e-05 | – | –
55 | G29C G43U A64U C68G | < 1e-05 | – | –
56 | A48U G62U C70U | < 1e-05 | – | –
57 | C11U A14C A39G | 0.000103 ± 3.3e-05 | 0.000472 ± 0.00019 | –
58 | A15U U31A C34A | < 1e-05 | < 1e-05 | –
59 | U45C U54G U56A | 0.000123 ± 2.3e-05 | 0.000428 ± 0.00012 | 0.000928 ± 0.00017
60 | A14G C58G C71A | 0.000191 ± 5.2e-05 | 9.06e-05 ± 1.5e-05 | –
61 | G9C A48G C67G C68A | 9.72e-05 ± 4.1e-05 | – | 0.000631 ± 0.00016
62 | A14U G40C U69C C71U | < 1e-05 | – | –
63 | C10A G35C C70U | < 1e-05 | – | –
64 | C8U G9A A15U A39G | < 1e-05 | < 1e-05 | –
65 | A14G G29A A39G A42G G43U G62C | < 1e-05 | < 1e-05 | –
66 | C58A G60U | < 1e-05 | < 1e-05 | < 1e-05
